Experimental findings from US20210206855A1 (ADAGENE, published 2021) are described below.

Substitutions are numbered along the chain they refer to.

One test addresses T1, human CD80 (recombinant) (human, UniProt P33681 35-242, limits assumed, biotinylated where used in solution).
T1 construct: also called biotinylated CD80
T1 sequence (looked up): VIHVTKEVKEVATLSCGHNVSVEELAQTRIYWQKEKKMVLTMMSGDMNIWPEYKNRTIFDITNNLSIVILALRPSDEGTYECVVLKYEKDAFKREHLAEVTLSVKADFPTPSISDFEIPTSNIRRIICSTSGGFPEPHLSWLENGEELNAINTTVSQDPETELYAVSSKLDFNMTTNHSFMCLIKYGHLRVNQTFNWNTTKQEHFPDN
The experiment in a line: flow cytometry on yeast displaying CTLA4; Normalized FACS Bound, human WT = 1. On the technique in general: A flow cytometer gives signals particle by particle.

The target in test [1] is T2, human CD86 (epitope mapping reagent) (human, UniProt P42081 24-247, limits assumed).
T2 sequence (looked up): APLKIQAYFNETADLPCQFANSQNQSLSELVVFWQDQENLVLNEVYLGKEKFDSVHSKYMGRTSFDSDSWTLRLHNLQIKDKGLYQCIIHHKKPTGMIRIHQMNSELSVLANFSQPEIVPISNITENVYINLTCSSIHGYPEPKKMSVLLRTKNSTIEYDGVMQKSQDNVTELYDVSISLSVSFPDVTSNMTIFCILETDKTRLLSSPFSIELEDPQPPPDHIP
The description is as above.

In another test the target is T3, mouse CD86 (mouse, UniProt P42082 24-244, limits assumed).
T3 sequence (looked up): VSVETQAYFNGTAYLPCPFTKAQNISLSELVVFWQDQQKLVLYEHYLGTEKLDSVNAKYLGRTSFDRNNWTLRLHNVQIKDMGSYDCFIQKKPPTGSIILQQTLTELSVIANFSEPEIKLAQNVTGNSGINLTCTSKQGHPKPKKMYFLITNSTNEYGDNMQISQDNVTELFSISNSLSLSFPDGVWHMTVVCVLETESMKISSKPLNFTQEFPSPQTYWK
The test is described as above.

Test [2] addresses T4, full-length mouse CTLA4 on the cell surface (HEK293F transfectants; also activated mouse T cells) (mouse, UniProt P09793 36-223).
T4 construct: whole, on cells; also called mouse cell-surface exposed mouse CTLA4
The experiment in a line: flow cytometry on HEK293F cells transiently expressing full-length mouse CTLA4; Alexa Fluor 647 anti-human Fc. The method, then: (§1) The affinities of the antibodies were also assessed against human and mouse CTLA4 transiently expressed on the surface of HEK293F cells (FIG. 2). Briefly, HEK293F cells were transfected with a plasmid expressing full-length human, monkey or mouse CTLA4 from a bicistronic IRES vector also encoding EGFP, and EGFP expression was used to identify the transfected cells. After 48 hours, the mammalian cell suspension (2×10⁵/well) was transferred to an Eppendorf tube, centrifuged, the supernatant was discarded, the cells were resuspended with 1 mL PBSA (to a density is 4×10⁶ cells/mL), and added to a 96 well plate. […] The cells were then washed once prior to analysis by flow cytometry (Beckman® CytoFlex).

The target in test [3] is T5, full-length human CTLA4 on the cell surface (HEK293F transfectants); also activated human T cells, … (human, UniProt P16410 36-223).
T5 construct: whole, on cells; used for every assay with human CTLA4 on cells; also called HEK293F/hCTLA-4; HEK293F/hCTLA4
T5 sequence (looked up): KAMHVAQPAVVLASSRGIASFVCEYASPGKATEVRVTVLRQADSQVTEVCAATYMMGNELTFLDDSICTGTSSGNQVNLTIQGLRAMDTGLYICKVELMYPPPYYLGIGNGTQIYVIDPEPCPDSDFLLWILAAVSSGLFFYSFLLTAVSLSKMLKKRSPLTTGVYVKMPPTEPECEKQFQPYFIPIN
Kind of test: flow cytometry on HEK293F cells transiently expressing full-length human CTLA4; Alexa Fluor 647 anti-human Fc. As for the experimental part: as §1

Test [4] addresses T6, recombinant human CTLA4 fused with human Fc and His tag (human, UniProt P16410 37-162, limits assumed, biotinylated where used in solution).
T6 construct: also called biotinylated human CTLA4 fused with human FC and His tag; recombinant human CTLA4 proteins; not shown: human Fc and His tag
T6 sequence (looked up): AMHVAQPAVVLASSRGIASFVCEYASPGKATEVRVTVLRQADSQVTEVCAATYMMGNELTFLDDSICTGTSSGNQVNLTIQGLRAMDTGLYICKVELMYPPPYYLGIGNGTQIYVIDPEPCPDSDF
Kind of test: competition ELISA: plate-bound human CTLA4-Fc-His, biotinylated human CD80 as the blocked ligand, HRP-neutravidin. As for the experimental part:
Plates were blocked with PBS supplemented with 2% (w/v) skim milk at 37° C. for 1 hour. […] Plates were washed four times, and 100 μL HRP-neutravidin (1:1000) was added to each well and incubated at 37° C. for 1 hour. Plates were washed as previously described, and 50 μL TMB substrate solution was added and incubated at room temperature for 5 minutes before the reaction was stopped by 50 μL sulfate acid (2M).
(An ELISA detects its analyte on a solid surface through an enzyme-linked reagent.)

Test [5] deals with T7, recombinant human CTLA4-Fc (Sino Biological, 11159-H03H) (human, UniProt P16410 37-162).
T7 construct: bought; whole entry named; Biotinylated in the yeast display assays; also called human CTLA4 fused with human FC fragment; biotinylated CTLA4-Fc; not shown: human Fc fragment
T7 sequence (looked up): T6 sequence (looked up)
The experiment in a line: ELISA, captured Fab.

The target of test [6] is T8, cynomolgus monkey CTLA4 antigen fused with human FC fragment (cynomolgus monkey, UniProt G7PL88 36-161, fused to a human Fc fragment that is not in the letters).
T8 sequence: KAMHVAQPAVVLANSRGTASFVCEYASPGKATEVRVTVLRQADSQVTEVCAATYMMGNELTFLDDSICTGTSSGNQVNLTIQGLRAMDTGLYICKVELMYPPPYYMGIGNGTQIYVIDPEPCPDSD
Kind of test: ELISA, captured Fab.

In test [7] the target is T9, mouse CTLA4 antigen fused with human FC fragment (mouse, UniProt P09793 36-162, limits assumed).
T9 construct: not shown: human Fc fragment
Kind of test: ELISA, captured Fab.

In test [8] the target is T7, recombinant human CTLA4-Fc (Sino …). Kind of test: ELISA, coated human CTLA4-Fc, batch 1; Data Batch 1. The method, then:
(§2) Plates were blocked with PBS supplemented with 3% non-fat milk at 37° C. for 1 hour. After washing, 100 μL of 3-fold serial dilutions of antibodies were added to each well. After incubation at 37° C. for 1 hour, plates were washed four times, and […] conjugated anti-human IgG (Fab specific) (1:6000 dilution) was added to each well. Plates were incubated at 37° C. for 1 hour, washed four times, and then 50 μL TMB substrate solution was added to each well, and the plate was incubated at room temperature. […] The EC₅₀ was evaluated by fitting the ELISA data using the asymmetrical sigmoidal (five-parameter logistic equation) model of GraphPad Prism 6 software.

Test [9] shares this target. The experiment in a line: ELISA, coated human CTLA4-Fc. As for the experimental part:
as §2
The purified activatable antibodies were treated with the proteases which recognize the cleavage sequences, and were then tested to determine whether removal of the masking peptide restored their activity.

Test [10] has the same target. Kind of test: ELISA, coated human CTLA4-Fc, batch 2. The method, then: as §2
Test [11] shares this target. Kind of test: ELISA, coated human CTLA4-Fc, batch 1. The method, then:
as §2

The target is the same in test [12]. Kind of test: ELISA, coated human CTLA4-Fc (as Example 8). As for the experimental part:
as §2

The target is the same in test [13]. Kind of test: ELISA, coated human CTLA4-Fc (as Example 8). As for the experimental part: as §2
This is another data set of the same source.

For test [14] the target is unchanged. The experiment in a line: ELISA, coated human CTLA4-Fc (as Example 8). The method, then: as §2
The source holds these as a separate data set.

B1: human CTLA4 mutant YLGIG105FVGMG displayed on yeast (receptor)
chain: KAMHVAQPAVVLASSRGIASFVCEYASPGKATEVRVTVLRQADSQVTEVCAATYMMGNELTFLDDSICTGTSSGNQVNLTIQGLRAMDTGLYICKVELMYPPPYFVGMGNGTQIYVIDPE
notes: also called G strand changed to mouse
In the case of B1, the binding result (with human CD80 (recombinant); in test [1]; with mouse CD86) was “binds” throughout.

B2: TY21588 (antibody, V domains shown)
VH: EVQLVESGGGLVQPGGSLRLSCAASGYSISSGYHWDWIRQAPGKGLEWVSGISGYGGSTYYADSVKGRFTISRDNSKNTLYLQLNSLRAEDTAVYYCARHSYYGSGNFDYWGQGTLVTVSS
VL: DIQLTQSPSSLSASVGDRVTITCRASESVDFFGKSFLHWYQQKPGKAPKLLIYDASNLETGVPSRFSGSGSGTDFTLTISSLQPEDFATYYCQQSYSWPPTFGQGTKVEIKR
On to B2, for which the binding result in [2], in [3] and in [4] was “binds” each time.

B3: B15732 (Fab, V domains shown)
VH: B2 VH
VL: B2 VL
notes: Fab hit from E. coli
As to B3, the binding result in test [5], in [6] and in test [7] was “binds” each time.

B4: TY22404 (antibody, IgG1, V domains shown)
VH: EVQLVESGGGLVQPGGSLRLSCAASGYSISSGYHWSWIRQAPGKGLEWLARIDWDDDKYYSTSLKSRLTISRDNSKNTLYLQLNSLRAEDTAVYYCARSYVYFDYWGQGTLVTVSS
VL: EVGSYPNPSSDCVPYYYACAYSGRSAGGGGSPLGLAGSGGSDIQLTQSPSSLSASVGDRVTITCRASQSVRGRFLAWYQQKPGKAPKLLIYDASNRATGIPSRFSGSGSGTDFTLTISSLQPEDFATYYCQQSSSWPPTFGQGTKVEIKR
notes: also called masking peptide B13197
As a reminder, the EC50 is the concentration giving half of the maximal effect. As to B4, the EC50 was determined as 0.178 µM in [8], 0.128 µM in [10] and 0.178 µM in test [11]. The LogEC50 in [9] was -7.01 log M; in test [10] it was -6.89 log M; in test [11] it was -6.75 log M.

B5: TY22404 (peptide as listed in Tables 26 and 29) (antibody, V domains shown)
VH: B4 VH
VL: B4 VL with S31T
notes: kept apart from m68
For B5, the values for the EC50 in [12], in test [13] and in [14] were 0.117 µM, 0.121 µM and 0.0684 µM, respectively.
